Reference: paper PMC10873366, “DNA binding redistributes activation domain ensemble and accessibility in pioneer factor Sox2” (Nature Communications, 2023)

Molecular target: T1, Sox2 C-terminal intrinsically disordered region (C-IDR)
T1 chain: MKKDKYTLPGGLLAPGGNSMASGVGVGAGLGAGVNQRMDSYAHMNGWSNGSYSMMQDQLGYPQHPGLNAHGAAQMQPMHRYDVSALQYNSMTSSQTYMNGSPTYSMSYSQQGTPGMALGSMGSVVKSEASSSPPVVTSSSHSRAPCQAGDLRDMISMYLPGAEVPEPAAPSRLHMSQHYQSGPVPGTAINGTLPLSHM
Assay: NMR titration; 15N-labelled C-IDR titrated with unlabelled N-DBD; 1H15N HSQC chemical shift changes of highly perturbed residues fitted to a 1:1 binding equation; 20 mM NaH2PO4, 50 mM NaCl, 5 mM DTT, pH 5.5, 15 °C
Settings: both partners purified

B1: Sox2 N-terminal domain and DBD (N-DBD) (domain or fragment)
chain: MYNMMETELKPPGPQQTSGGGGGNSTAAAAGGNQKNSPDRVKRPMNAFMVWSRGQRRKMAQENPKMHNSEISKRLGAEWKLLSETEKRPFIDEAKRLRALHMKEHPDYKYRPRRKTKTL
modifications: Limits are not printed. They are inferred from 109 expected HSQC peaks (119 residues minus 9 Pro and the N-terminal Met) and from the C-IDR starting at 120. The NMR sample was 15N(/13C)-labelled or …
With B1 the Kd was 80 ± 4 µM.
